Assay results from publication PMC4459817, “Vasculotide reduces endothelial permeability and tumor cell extravasation in the absence of binding to or agonistic activation of Tie2” (EMBO Molecular Medicine, 2015).

T1: mouse Tie2-Fc (Fc-conjugated extracellular domain of Tie2) (mouse, UniProt Q02858 23-746)
T1 chain: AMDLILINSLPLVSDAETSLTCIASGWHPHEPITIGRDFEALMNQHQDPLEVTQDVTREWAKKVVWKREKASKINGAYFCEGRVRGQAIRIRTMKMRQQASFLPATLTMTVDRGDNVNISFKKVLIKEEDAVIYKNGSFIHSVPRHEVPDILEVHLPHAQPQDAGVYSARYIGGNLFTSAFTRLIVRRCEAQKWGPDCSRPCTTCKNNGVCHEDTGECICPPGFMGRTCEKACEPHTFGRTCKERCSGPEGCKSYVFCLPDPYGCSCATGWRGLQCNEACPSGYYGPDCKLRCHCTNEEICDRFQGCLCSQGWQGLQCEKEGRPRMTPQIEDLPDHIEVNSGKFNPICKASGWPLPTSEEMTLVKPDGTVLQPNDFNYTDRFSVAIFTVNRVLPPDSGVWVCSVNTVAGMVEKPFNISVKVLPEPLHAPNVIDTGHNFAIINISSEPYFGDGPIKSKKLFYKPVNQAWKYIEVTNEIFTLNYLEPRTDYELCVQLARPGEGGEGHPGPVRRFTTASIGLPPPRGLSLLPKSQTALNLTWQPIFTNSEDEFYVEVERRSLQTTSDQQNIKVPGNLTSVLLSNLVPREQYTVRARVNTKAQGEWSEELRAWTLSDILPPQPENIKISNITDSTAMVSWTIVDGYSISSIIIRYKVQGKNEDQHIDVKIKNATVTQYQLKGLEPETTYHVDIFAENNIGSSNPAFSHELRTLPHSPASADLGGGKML

T2: human Tie2-Fc (Fc-conjugated extracellular domain of Tie2) (human, UniProt Q02763 23-748)
T2 chain: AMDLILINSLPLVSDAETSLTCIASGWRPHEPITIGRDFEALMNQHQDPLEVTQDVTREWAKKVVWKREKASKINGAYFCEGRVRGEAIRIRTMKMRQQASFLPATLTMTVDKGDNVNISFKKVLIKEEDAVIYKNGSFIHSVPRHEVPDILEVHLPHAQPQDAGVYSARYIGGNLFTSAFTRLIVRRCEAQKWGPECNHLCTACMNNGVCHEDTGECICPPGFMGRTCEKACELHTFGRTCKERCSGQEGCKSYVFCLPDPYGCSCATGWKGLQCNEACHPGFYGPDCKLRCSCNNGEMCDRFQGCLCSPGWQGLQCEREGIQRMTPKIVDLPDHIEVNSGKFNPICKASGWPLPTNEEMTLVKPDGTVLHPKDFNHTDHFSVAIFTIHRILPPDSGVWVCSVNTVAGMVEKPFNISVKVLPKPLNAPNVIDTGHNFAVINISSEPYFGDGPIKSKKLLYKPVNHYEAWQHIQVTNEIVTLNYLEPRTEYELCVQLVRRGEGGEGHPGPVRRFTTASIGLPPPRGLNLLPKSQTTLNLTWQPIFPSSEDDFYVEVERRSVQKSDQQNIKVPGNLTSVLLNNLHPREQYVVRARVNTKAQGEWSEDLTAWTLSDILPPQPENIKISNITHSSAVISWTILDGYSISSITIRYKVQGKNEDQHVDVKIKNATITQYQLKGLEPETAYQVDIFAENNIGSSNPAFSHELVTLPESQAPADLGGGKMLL

B1: recombinant human Ang1 (rhAng1) (ligand, UniProt Q15389 16-498, looked up)
chain: HIGCSNQRRSPENSGRRYNRIQHGQCAYTFILPEHDGNCRESTTDQYNTNALQRDAPHVEPDFSSQKLQHLEHVMENYTQWLQKLENYIVENMKSEMAQIQQNAVQNHTATMLEIGTSLLSQTAEQTRKLTDVETQVLNQTSRLEIQLLENSLSTYKLEKQLLQQTNEILKIHEKNSLLEHKILEMEGKHKEELDTLKEEKENLQGLVTRQTYIIQELEKQLNRATTNNSVLQKQQLELMDTVHNLVNLCTKEGVLLKGGKREEEKPFRDCADVYQAGFNKSGIYTIYINNMPEPKKVFCNMDVNGGGWTVIQHREDGSLDFQRGWKEYKMGFGNPSGEYWLGNEFIFAITSQRQYMLRIELMDWEGNRAYSQYDRFHIGNEKQNYRLYLKGHTGTAGKQSSLILHGADFSTKDADNDNCMCKCALMLTGGWWFDACGPSNLNGMFYTAGQNHGKLNGIKWHYFKGPSYSLRSTTMMIRPLDF
notes: angiopoietin-1, human, recombinant; also called angiopoietin-1; source: bought: R&D Systems (named for the Boyden chamber experiments)

Legend:
[1] = tested on: LM2-4luc experimental metastasis; settings: SU prior to IV inoculation of LM2-4luc; ref Ebos et al, 2009; cited from earlier work
Text: Here, we tested whether concurrent VT therapy can be used to reverse this pro-metastatic potential of SU in the same model. LM2-4^luc is a metastatically aggressive luciferase-tagged derivative of the MDA-MB-231 cell line that was derived through serial in vivo selection ...

[2] = molecular target: T1, mouse Tie2-Fc (Fc-conjugated …); experiment: SPR
[3] = molecular target: T2, human Tie2-Fc (Fc-conjugated …); experiment: SPR

Molecule | experimental metastasis, especially in the lungs [1] | koff [2] | Kd [3]
CCN(CC)CCNC(=O)c1c(C)[nH]c(/C=C2\C(=O)Nc3ccc(F)cc32)c1C [sunitinib, reference compound] | promotion of experimental metastasis, especially in the lungs |  | 
B1 |  | 0.00033 s⁻¹ | 0.205 nM
